Measured values as given in patent US20220340635A1 (ZHEJIANG DOER BIOLOGICS, published 2022).
Substitutions are numbered along the chain they refer to.

B1: A137L1F8L5M3 (Fc fusion)
chain: YSEGTFTSDYSKYLDSQAAQDFVQWLLDGGPSSGAPPPSGGGGSGGGGSGGGGSAESKYGPPCPPCPAPEAAGGPSVFLFPPKPKDTLMISRTPEVTCVVVDVSQEDPEVQFNWYVDGVEVHNAKTKPREEQFASTYRVVSVLTVLHQDWLNGKEYKCKVSNKGLPSSIEKTISKAKGQPREPQVYTLPPSQEEMTKNQVSLTCLVKGFYPSDIAVEWESNGQPENNYKTTPPVLDSDGSFFLYSRLTVDKSRWQEGNVFSCSVMHEALHNHYTQKSLSLSLGGGGGAGGGGAGGGGADSSPLLQFGGQVRQRYLYTDDAQQTEAHLEIREDGTVGGAADQSPESLLQLKALKPGVIQILGVKTSRFLCQRPDGALYGSLHFDPEACSFRELLLEDGYNVYQSEAHGLPLHCPGNKSPHRDPAPRGPCRFLPLPGLPPALPEPPGILAPQPPDVGSSDPLAMVGPSQGRSPSYAS
B2: A175L1F8L5M3 (Fc fusion)
chain: B1 chain with D28A
B3: A352L1F8L5W (Fc fusion)
chain: HSQGTFTSDYSKYLDSQAAQDFVQWLLAGGPSSGAPPPSGGGGSGGGGSGGGGSAESKYGPPCPPCPAPEAAGGPSVFLFPPKPKDTLMISRTPEVTCVVVDVSQEDPEVQFNWYVDGVEVHNAKTKPREEQFASTYRVVSVLTVLHQDWLNGKEYKCKVSNKGLPSSIEKTISKAKGQPREPQVYTLPPSQEEMTKNQVSLTCLVKGFYPSDIAVEWESNGQPENNYKTTPPVLDSDGSFFLYSRLTVDKSRWQEGNVFSCSVMHEALHNHYTQKSLSLSLGGGGGAGGGGAGGGGAHPIPDSSPLLQFGGQVRQRYLYTDDAQQTEAHLEIREDGTVGGAADQSPESLLQLKALKPGVIQILGVKTSRFLCQRPDGALYGSLHFDPEACSFRELLLEDGYNVYQSEAHGLPLHLPGNKSPHRDPAPRGPARFLPLPGLPPALPEPPGILAPQPPDVGSSDPLSMVGPSQGRSPSYAS
B4: A382L1F8L5M1 (Fc fusion)
chain: B3 chain with A28D, L396R, P469G, A478E
B5: A352L1F8L5M1 (Fc fusion)
chain: B3 chain with L396R, P469G, A478E

Each binder was assayed against β-klotho (KLB) (assay: cell-based or functional assay).

Binder	FGF21 activity (EC50, nM) [nM]
B1	0.82
B2	0.63
B3	0.55
B4	0.79
B5	0.79

The binders below were run against human GLP-1R (human, UniProt P43220 24-463) (assay: cell-based or functional assay).

Binder	GLP-1R agonist activity (EC50, nM) [nM]
B1	59.1
B2	47.1
B3	1.34
B4	1.13
B5	1.13

What follows are binders tested against GCGR (assay: cell-based or functional assay).

Binder	GCGR agonist activity (EC50, nM) [nM]
B1	41.2
B2	39.2
B3	1.22
B4	1.2
B5	1.2
